Article doi:10.1101/2025.11.18.689095 (bioRxiv, 2025)
Where no end group is shown, it is not given here.

B1: Hsp90_(EEVD) peptide (peptide)
peptide: YDTSRMEEVD-OH
notes: tyrosine added to aid with quantification; C-terminal residues 724-732 of human Hsp90α; 10 residues: an added N-terminal Tyr and nine Hsp90 residues; source: synthetic peptide (LifeTein)
B2: human Tom70 (residues 108–608) (domain or fragment)
chain: MNSLDRAQAAKNKGNKYFKAGKYEQAIQCYTEAISLCPTEKNVDLSTFYQNRAAAFEQLQKWKEVAQDCTKAVELNPKYVKALFRRAKAHEKLDNKKECLEDVTAVCILEGFQNQQSMLLADKVLKLLGKEKAKEKYKNREPLMPSPQFIKSYFSSFTDDIISQPMLKGEKSDEDKDKEGEALEVKENSGYLKAKQYMEEENYDKIISECSKEIDAEGKYMAEALLLRATFYLLIGNANAAKPDLDKVISLKEANVKLRANALIKRGSMYMQQQQPLLSTQDFNMAADIDPQNADVYHHRGQLKILLDQVEEAVADFDECIRLRPESALAQAQKCFALYRQAYTGNNSSQIQAAMKGFEEVIKKFPRCAEGYALYAQALTDQQQFGKADEMYDKCIDLEPDNATTYVHKGLLQLQWKQDLDRGLELISKAIEIDNKCDFAYETMGTIEVQRGNMEKAIDMFNKAINLAKSEMEMAHLYSLCDAAHAQTEVAKKYGLKPPTL
notes: human Tom70 (translocase of outer mitochondria membrane 70), residues 108-608; N-terminal Avi tag, His6 tag, (GGS)5 linker and TEV site removed by TEV protease; also called hTom70; free Tom70; source: E. coli BL21 (DE3), purified (Ni-NTA, TEV cleavage, second Ni column, SEC); not shown: Avi, N-terminal, cleaved; His6, N-terminal, cleaved
B3: ^19F-labeled Tom70 (5-fluoro-tryptophan, residues 108–608) (domain or fragment)
chain: B2 chain
modifications: 5-fluoro-tryptophan at W169 and W523
notes: human Tom70, residues 108-608; also called ^19F Tom70; 5F-Trp Tom70; source: E. coli BL21(DE3) in M9 media supplemented with 5-fluoro-tryptophan, purified as unlabeled Tom70; not shown: Avi, N-terminal, cleaved; His6, N-terminal, cleaved

Assays:
Settings in all cases: both partners purified
[1] = biological target: B2; test: ITC; Hsp90_(EEVD) (400–500 μM) titrated into Tom70 or its complexes (30 μM) in the cell; 20°C; 20 mM sodium phosphate pH 8, 150 mM NaCl, 2 mM TCEP, 10% glycerol; 1:1 binding model
[2] = biological target: T1, human Hsp90α (residues 1–732), full-length (human, UniProt P07900 1-732); test: ITC; Tom70 (400 μM), Tom70:Orf9b_(Helix) complex (400 μM), Tom70:Orf9b complex (500 μM) or truncation mutant complexes titrated into Hsp90 (20 μM); 20°C; 20 mM sodium phosphate pH 8, 150 mM NaCl, 2 mM TCEP, 10% glycerol; 1:1 binding model
T1 construct: human Hsp90α, residues 1-732; also called full-length Hsp90; heat shock protein 90; source: E. coli BL21 Star (DE3) pLysS, purified (Ni-INDIGO, TEV cleavage, second Ni-INDIGO, HiPrep Q); not shown: Avi, N-terminal, cleaved; His6, N-terminal, cleaved

[3] = biological target: T2, biotinylated human Hsp90α (residues 1–732), tags not cleaved (human, UniProt P07900 1-732, biotin (enzymatic protein biotinylation kit)); test: BLI + ITC; kon estimated indirectly as koff from BLI (immobilised biotinylated Hsp90) divided by KD from ITC (untagged Hsp90)
T2 construct: human Hsp90α, residues 1-732; N-terminal Avi tag, His6 tag, (GGS)5 linker and TEV site remain on the chain; held on streptavidin probes; also called biotinylated Hsp90; surface-immobilized Hsp90; source: E. coli BL21 Star (DE3) pLysS, purified (Ni-INDIGO, HiPrep Q; no TEV cleavage), enzymatically biotinylated; not shown: Avi, N-terminal, kept; His6, N-terminal, kept

[4] = biological target: T1, human Hsp90α (residues 1–732), …; test: NMR titration

In the case of B1, the “fold lower affinity than full-length Hsp90 for free Tom70” value [1] is reported as 4 fold.

Work on B2 yielded a Kd [2] of 3000 nM and a kon [3] of 500000 M⁻¹ s⁻¹.

B3: binds [4].
